These results are taken from patent US20260174875A1 (Novo Nordisk A/S, priority 2023, published 2026).

T1: human GIP receptor (human, UniProt P48546 22-466)
T1 sequence (looked up): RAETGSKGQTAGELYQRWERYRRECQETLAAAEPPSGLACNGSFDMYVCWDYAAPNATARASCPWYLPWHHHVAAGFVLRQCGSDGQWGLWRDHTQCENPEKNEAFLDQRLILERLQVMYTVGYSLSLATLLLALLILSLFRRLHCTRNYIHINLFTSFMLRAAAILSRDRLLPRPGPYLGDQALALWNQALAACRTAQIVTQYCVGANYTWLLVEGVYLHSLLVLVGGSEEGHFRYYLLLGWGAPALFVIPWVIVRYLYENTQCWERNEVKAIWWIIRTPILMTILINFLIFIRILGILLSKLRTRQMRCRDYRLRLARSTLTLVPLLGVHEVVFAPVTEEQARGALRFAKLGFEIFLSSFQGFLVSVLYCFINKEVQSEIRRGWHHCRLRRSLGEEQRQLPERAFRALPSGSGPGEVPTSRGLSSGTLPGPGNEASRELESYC

T2: human amylin-3(a) receptor (human, UniProt P30988 25-474; O60896 24-148)
T2 sequence (looked up) 1: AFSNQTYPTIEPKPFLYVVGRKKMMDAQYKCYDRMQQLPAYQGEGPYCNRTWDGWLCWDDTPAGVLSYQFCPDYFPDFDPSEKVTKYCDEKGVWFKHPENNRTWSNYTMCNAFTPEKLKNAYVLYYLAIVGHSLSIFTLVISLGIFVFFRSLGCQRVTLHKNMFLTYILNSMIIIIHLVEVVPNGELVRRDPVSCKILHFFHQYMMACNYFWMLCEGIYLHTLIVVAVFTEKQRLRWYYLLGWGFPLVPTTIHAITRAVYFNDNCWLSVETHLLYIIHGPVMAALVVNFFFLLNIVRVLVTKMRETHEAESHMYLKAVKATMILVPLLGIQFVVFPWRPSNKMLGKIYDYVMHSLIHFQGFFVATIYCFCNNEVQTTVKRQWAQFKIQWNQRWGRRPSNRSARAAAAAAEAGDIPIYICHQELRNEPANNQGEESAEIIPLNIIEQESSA
T2 sequence (looked up) 2: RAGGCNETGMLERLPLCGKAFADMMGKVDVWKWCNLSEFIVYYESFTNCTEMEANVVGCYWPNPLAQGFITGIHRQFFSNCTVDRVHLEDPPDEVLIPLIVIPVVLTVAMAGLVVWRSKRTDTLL

B1: Compound 48 (peptide)
peptide: Y[Aib]EGTFTSDYSILLEEQAAREFIEWLLAGGPSSGALAQTLAQTLASHLSTAQTQRLSAELHK(Chem. 28)LATLPRTETGSGSP-NH2
modifications: reading uncertain
B2: Compound 37 (peptide)
peptide: H[Aib]HGTFTSDYSILLEEQAAREFIEWLLAGGPSK(Chem. 28)GAPPPSGGGEASHLSTAQTARLSAELHRLADLPRTETGSGSP-NH2
modifications: reading uncertain
B3: Compound 39 (peptide)
peptide: Y[Aib]EGTFTSDYSILLEEQAAREFIEWLLAGGPSK(Chem. 28)GGQEPGQEPGEASHLSTAQTQRLSAELHELATLPRTETGSGSP-NH2
modifications: reading uncertain
B4: Compound 38 (peptide)
peptide: Y[Aib]EGTFTSDYSILLEEQAAREFIEWLLAGGPSK(Chem. 28)GGQAPGQAPGEASHLSTAQTQRLSAELHELATLPRTETGSGSP-NH2
modifications: reading uncertain
B5: Compound 45 (peptide)
peptide: H[Aib]HGTFTSDYSILLEEQAAREFIEWLLAGGPSK(Chem. 28)GALAQTLGTNEASHLSTAQTQRLSAELHELATLPRTETGSGSP-NH2
modifications: reading uncertain
B6: Compound 43 (peptide)
peptide: H[Aib]HGTFTSDYSILLEEQAAREFIEWLLAGGPSK(Chem. 28)GEASQLSTAALGRLSAELHRLADLPRTETGSGSP-NH2
modifications: reading uncertain
B7: Compound 47 (peptide)
peptide: H[Aib]HGTFTSDYSILLEEQAAREFIEWLLAGGPSK(Chem. 28)GAGQAPGQAPGASHLSTAQTQRLSAELHELATLPRTETGSGSP-NH2
modifications: reading uncertain

Square brackets hold non-standard residues; d marks the D form. Chem. 28 = not defined here; Aib = CC(C)(N)C(=O)O

For the first assay, the target named is T3, human GLP-1 receptor (human, UniProt P43220 24-463). As to the kind of experiment: cell-based or functional assay.
In the case of B1, the “hGLP-1R Potency, 1% HSA, EC50 [pM]” value came to 105 pM.
On the same count and under the same terms, the figure for B2 is 188 pM; for B3 it is 1930 pM; for B4 it is 2350 pM.
Same read-out and setting: under B5 stands 112 pM; under B6, 41.5 pM; under B7, 67.5 pM.

A further assay concerns the target T1, human GIP receptor. As to the kind of experiment: cell-based or functional assay.
With B1, the “hGIPR Potency, 1% HSA, EC50 [pM]” value amounted to 54 pM.
Same read-out and setting: the figure for B2 is 133 pM; for B3 it is 352 pM; for B4 it is 336 pM.
Same read-out and setting: the figure for B5 is 132 pM.
In the case of B6, the “hGIPR Potency, 1% HSA, EC50 [pM]” value came out at 186 pM.
For B7, the “hGIPR Potency, 1% HSA, EC50 [pM]” value stood at 162 pM.

The target in the next assay is T2, human amylin-3(a) receptor. As to the kind of experiment: cell-based or functional assay.
For B1, the “hAMYR3 Potency, 1% HSA, EC50 [pM]” value is 78.5 pM.
Regarding B2, the “hAMYR3 Potency, 1% HSA, EC50 [pM]” value turned out to be 75.7 pM.
Consider B3, for which the “hAMYR3 Potency, 1% HSA, EC50 [pM]” value came out at 140 pM.
On to B4, for which the “hAMYR3 Potency, 1% HSA, EC50 [pM]” value worked out at 172 pM.
As for B5, the “hAMYR3 Potency, 1% HSA, EC50 [pM]” value was found to be 62.4 pM.
On the same count and under the same terms, under B6 stands 56.5 pM.
As to B7, the “hAMYR3 Potency, 1% HSA, EC50 [pM]” value turned out to be 55.8 pM.

The target in a further assay is T3, human GLP-1 receptor. As to the kind of experiment: cell-based or functional assay. This is another data set of the same source.
B1: the “hGLP-1R Potency, no HSA, EC50 [pM]” value was 64.8 pM.
The same measure, in the same setting: the figure for B2 is 3.94 pM.
The same measure, in the same setting: the figure for B3 is 23.7 pM.
On the same count and under the same terms, the figure for B4 is 12 pM; for B5 it is 4.78 pM.
For B6, the “hGLP-1R Potency, no HSA, EC50 [pM]” value came out at 4.31 pM.
The same measure, in the same setting: the figure for B7 is 3.15 pM.

The next assay has as its target T1, human GIP receptor. As to the kind of experiment: cell-based or functional assay. The source holds these as a separate data set.
For the molecule B1, the “hGIPR Potency, no HSA, EC50 [pM]” value was found to be 7.02 pM.
Still for that read-out and setting: under B2 stands 2.34 pM; under B3, 1.62 pM.
Turning to B4, the “hGIPR Potency, no HSA, EC50 [pM]” value worked out at 1.37 pM.
The same measure, in the same setting: under B5 stands 2.63 pM; under B6, 4.38 pM; under B7, 2.02 pM.

The target in a further assay is T2, human amylin-3(a) receptor. The experiment in a line: cell-based or functional assay. This is another data set of the same source.
Turning to B1, the “hAMYR3 Potency, no HSA, EC50 [pM]” value stood at 3.2 pM.
Regarding B2, the “hAMYR3 Potency, no HSA, EC50 [pM]” value turned out to be 2.98 pM.
Turning to B3, the “hAMYR3 Potency, no HSA, EC50 [pM]” value was 5.75 pM.
In the case of B4, the “hAMYR3 Potency, no HSA, EC50 [pM]” value is 3.63 pM.
As to B5, the “hAMYR3 Potency, no HSA, EC50 [pM]” value is 4.69 pM.
On to B6, for which the “hAMYR3 Potency, no HSA, EC50 [pM]” value was determined as 3.13 pM.
Still for that read-out and setting: under B7 stands 2.57 pM.
